Measured values from patent US20200147199A1.

Legend:
Test in all cases: SPR
Human FcγRIIb = biological target: Human FcγRIIb
Human FcRn = biological target: Human FcRn
Human FcγRIIIaV158 = biological target: Human FcγRIIIaV158
NHP FcγRIIa = biological target: NHP FcγRIIa
NHP FcγRIII = biological target: NHP FcγRIII
Human FcγRIIaH131 = biological target: Human FcγRIIaH131
NHP FcγRIIb = biological target: NHP FcγRIIb

Row | Substance | Kd (Human FcγRIIb) | Kd (Human FcRn) | Kd (Human FcγRIIIaV158) | Kd (NHP FcγRIIa) | Kd (NHP FcγRIII) | Kd (Human FcγRIIaH131) | Kd (NHP FcγRIIb)
1 | LS | 6380 nM | 4.76 nM | 233 nM | 7970 nM | 424 nM | 2090 nM | 2690 nM
2 | GRLR |  | 22.4 nM |  |  |  |  | 
